Experimental data published in US20230349919A1 (Regeneron, published 2023).
Residue numbers refer to the chain shown, from its start. Blank lines part the entries; values can stand above or below the binder they belong to.

Experiments:
Der p 2 [1] = target: T1, Der p 2 (house dust mite, UniProt P49278 18-146); assay: centered log-ratio of barcode count
T1 construct: Also used oligonucleotide-barcoded for cell staining
T1 sequence (looked up): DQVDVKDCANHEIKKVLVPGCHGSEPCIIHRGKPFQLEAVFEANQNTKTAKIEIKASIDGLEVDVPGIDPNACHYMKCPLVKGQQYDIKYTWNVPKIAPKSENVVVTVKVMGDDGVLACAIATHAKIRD
Source text: (§1) The barcoded antigen library was mapped by the CellRanger software to a custom short-read reference that contained the DNA tag sequences of the four barcoded antigens, namely, Der p 1, Der p 2, Der f 1 and Ole e 1. These tag sequences were quantified across all cells and were normalized by taking the centered log-ratio (CLR) per barcoded antigen across each sample capture. In addition, background antigen signal for each barcoded antigen was removed by DSB (Denoised and Scaled by Background). Both the CLR and the DSB normalized values were used to quantify the target antigen signals, namely, those for Der p 1, Der p 2 and Der f 1, against the control signal, namely, that for Ole e 1.

Ole e 1 [2] = target: T2, Ole e 1 (olive, UniProt P19963 1-145); assay: centered log-ratio of barcode count
T2 construct: Also used oligonucleotide-barcoded for cell staining; also called olive allergen; negative control allergen
T2 sequence (looked up): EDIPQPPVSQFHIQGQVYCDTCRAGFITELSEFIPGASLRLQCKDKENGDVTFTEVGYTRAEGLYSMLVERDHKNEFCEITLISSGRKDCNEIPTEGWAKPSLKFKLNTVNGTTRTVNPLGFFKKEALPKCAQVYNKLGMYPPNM
Source text: as §1

Der p 2 [3] = target: T1, Der p 2; assay: barcode rank score against control Ole e 1
Der p 2 [4] = target: T1, Der p 2; assay: barcoded-antigen count on source cell
Ole e 1 [5] = target: T2, Ole e 1; assay: barcoded-antigen count on source cell
Der p 2 [6] = target: T1, Der p 2; assay: ELISA, coated Der p2
Procedure: After selecting allergen-specific antibodies, relative binding to Der p 1, Der p 2, and Der f 1 were quantified by ELISA. […] Specifically, binding microtiter plates were coated with 100 μl of 2 μg/mL of natural Der p 1, Der p 2, Der f 1, and Ole e 1 in PBS overnight at 4′C. IgE antibodies were prepared at a concentration of 1 μg/mL and serially diluted three-fold in PBS with 0.5% w/v BSA. After washing with 0.05% v/v Tween® 20 in PBS and blocking in PBS with 0.5% w/v BSA, 100 μl of the diluted IgE antibodies were transferred to the plates and incubated for one hour at ambient temperature. Subsequently, 100 μL of anti-mouse IgE antibody conjugated to horse-radish peroxidase (HRP) diluted at 1:5000 was added. The plates were then incubated for one hour at ambient temperature, and washed in 0.05% v/v/Tween® 20 in PBS. Subsequently, the HRP substrate 3,3′,5,5′-tetramethylbenzidine (TMB) was added. The reaction was stopped (with 100 μL of sulfuric acid 2.0 N) and optical density values determined using a plate reader at 450 nm.

[7] = target: T3, human IL-4Rα (hIL-4Rα) monomeric protein (human, UniProt P24394 26-232, limits assumed); assay: Biacore (SPR)
T3 construct: also called hIL-4Rα antigen; barcoded hIL-4Rα

[8] = target: T3, human IL-4Rα (hIL-4Rα) monomeric protein; assay: Biacore (SPR); negative log10 of Kd
[9] = target: T3, human IL-4Rα (hIL-4Rα) monomeric protein; assay: barcoded-antigen count on source cell (scRNA-seq)

B1: IgE mAb 13_2 (antibody, V domains shown)
VH: EVQLQQSGPELVKPGASVKISCKASGYTFTDYYMNWVKQSHGKSLEWIGDINPNNGGTSYNQKFKGKATLTVDKSSSTAYMELRSLTSEDSAVYYCAYGPPRGPPWFAYWGQGTLVTVSA
VL: DIVLTQSPASLAVSLGQRATISCRASKSVSTSGYSYMHWYQQKPGQPPKLLIYLASNLESGVPARFSGSGSGTDFTLNIHPVEEEDAATYYCQHSRELPWTFGGGTKLEIK
notes: IgE (IGHE, IGKC) from HDM-exposed mouse, LymphNode
Derp2_ab_clr (Der p 2 [1]): 1.62
Olee1_ab_clr (Ole e 1 [2]): 0.0287
Derp2_ab_rank (Der p 2 [3]): 0.858
Derp2_ab_raw (Der p 2 [4]): 46 counts
Olee1_ab_raw (Ole e 1 [5]): 1 counts

B2: IgE mAb 17_2 (antibody, V domains shown)
VH: EVHLQQSGPDLVKPGASVMISCQASGYSFTAYYINWVKQSPEKSLEWIGEINPGSGGVIYNRKFEAKATLIVDKSSNTAFMLLTRLTSEDSAIYYCARKGFYQFDYWGQGTTLTVSS
VL: SVVMTQIPKFLVVSAGDRVTITCKASQSVNDGVFWYQQKTGQSPKLVIYHTSNRYTGVSDRFTGSGYGTEFTFTISAVQSEDLAIYFCQQDYTSPLTFGGGTRLEIK
notes: as for B1
binding result (Der p 2 [6]): no binding (tested: about 6e-9 M (log10 M about -8.25))
Derp2_ab_clr (Der p 2 [1]): 0.58
Olee1_ab_clr (Ole e 1 [2]): 0.603
Derp2_ab_rank (Der p 2 [3]): 0.336
Derp2_ab_raw (Der p 2 [4]): 6 counts
Olee1_ab_raw (Ole e 1 [5]): 3 counts

B3: Table 1 Line # 26 antibody (SP_B_cell) (antibody, human IgG4, V domains shown)
VH: QVQLQQSGPGLVKPSQTLSLTCAISGDSVSSNIATWNWIRQSPSRGLECLGRTYYRSKWYSDYAVSVKSRITINPDTSKNQFSLQLNSVTPEDTAVYYCARGWNYGYYFDYWGQGTLVTVSS
VL: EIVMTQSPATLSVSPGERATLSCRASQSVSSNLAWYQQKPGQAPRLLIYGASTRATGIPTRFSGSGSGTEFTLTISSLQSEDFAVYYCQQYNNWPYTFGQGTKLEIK
notes: Cloned with human IgG4/human Igk constants for Kd; barcode counts are of the source cell's own IgG
Kd [7]: 112 nM
negLog10Kd [8]: 6.95
REGN560.L15_ab_raw [9]: 10400 counts

B4: Table 1 Line # 28 antibody (SP_B_cell) (antibody, human IgG4, V domains shown)
VH: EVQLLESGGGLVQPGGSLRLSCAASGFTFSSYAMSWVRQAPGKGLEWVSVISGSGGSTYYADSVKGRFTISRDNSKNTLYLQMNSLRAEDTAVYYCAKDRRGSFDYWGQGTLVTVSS
VL: DIQMTQSPSSVSASVGDRVTITCRASQGISSWFAWYQQKPGKAPKLLIYAASSLLSGVPSRFSGSGSGTDFTLTISSLQPEDFATYYCQQANSFPFTFGPGTKVDFK
notes: as for B3
Kd [7]: 146 nM
negLog10Kd [8]: 6.84
REGN560.L15_ab_raw [9]: 9450 counts

B7: Table 1 Line # 3 antibody (BM_Plasma_cell) (antibody, human IgG4, V domains shown)
VH: EVQLVESGGGLVQPGRSLRLSCAASGFTFDDYAMHWVRQVTGKGLEWVSGINWNSGNIGYADSVRGRFTISRDNAKNSLYLQMNSLRAEDTALYYCAKDSGSSWYGYFDLWGRGTLVTVSS
VL: DIQMTQSPSTLSASVGDRVTITCRASQSISRWLAWYQQKPGKAPKFLIYKASSLESGVPSRFSGSGSGTEFTLTISSLQPDDFATYYCQQYNSDSRTFGQGTKVEIK
notes: as for B3
Kd [7]: 537 nM
negLog10Kd [8]: 6.27
REGN560.L15_ab_raw [9]: 6320 counts

B8: Table 1 Line # 25 antibody (SP_B_cell) (antibody, human IgG4, V domains shown)
VH: EVQLVESGGTVERPGGSLRLSCAASGFTFDDYGMSWVRQAPGKGLEWVSGTSWNGGHIGYADSVKGRFIISRDNAKNSLYLQINSLRVEDTALYYCTRDSTSSWYGVFDFWGQGTLVTVSS
VL: DIQMTQSPSSLSASVGDRVTITCRASQDISINLAWYQQKPGKTPKLLIYAAASTLQSGVPSRFSGSGSGTDFTLTISSLQPEDVATYYCQNYNSAPRTFGQGTKVEIK
notes: as for B3
Kd [7]: 97.6 nM
negLog10Kd [8]: 7.01
REGN560.L15_ab_raw [9]: 10600 counts

B9: Table 1 Line # 21 antibody (SP_B_cell) (antibody, human IgG4, V domains shown)
VH: EVQLVESGGGVVRPGGSLRLSCAASGFTFDDYGMSWVRQAPGKGLEWVSGINWNGGSTGYADSVKGRFTMSRDNAKKSLYLQMNSLRAEDTAFYHCARDDSSSLYGYFQHWGQGTLVTVSS
VL: DIQMTQSPSSLSASVGDRVTITCRASQGISIYLAWYQQKPGKVPKLLIYAASTLQSGVPSRFSGSGSGTDFTLTISSLQPEDVATYYCQNYNSAPRTFGQGTKVEIK
notes: as for B3
Kd [7]: 177 nM
negLog10Kd [8]: 6.75
REGN560.L15_ab_raw [9]: 17400 counts

B13: Table 1 Line # 6 antibody (BM_Plasma_cell) (antibody, human IgG4, V domains shown)
VH: EVQLVESGGDLVQPGRSLRLSCAASGFTFDDYAMHWVRQAPGKGLEWVSGISWNGNSLGYVDSVKGRFTVSRDNAKNSLYLQMNSLRAEDTALYYCTKDTGSYHSYYGLDVWGQGTTVTVSS
VL: DIQMTQSPSSLSASVGDRVTITCRASQGIRNDLGWYQQKPGKAPKRLIYAASSLPSGVPSRFSGSGSGTEFTLTISSLQPEDFATYYCLQLNTYPLTFGGGTKVEIK
notes: as for B3
Kd [7]: 136 nM
negLog10Kd [8]: 6.87
REGN560.L15_ab_raw [9]: 4140 counts

B14: Table 1 Line # 24 antibody (SP_B_cell) (antibody, human IgG4, V domains shown)
VH: EVQLVESGGDLVQPGTSLRLSCAASGFTFDDYAMHWVRQTPGQGLEWVSGINWNSGTIGYADSVKGRFTISRDNAKNSLFLQMNSLRAEDSAFYYCTKDIGGSYYASDFWGQGTLVTVSS
VL: DIQMTQSPSSLSASVGDRVTITCRASQRISTDLNWYQQKSGKAPNLLIYGASSLQSGVPSRFSGSGSGTDFILTISTLQPEDFATYYCQQSYSTPFTFGPGTKVDIK
notes: as for B3
Kd [7]: 207 nM
negLog10Kd [8]: 6.68
REGN560.L15_ab_raw [9]: 10800 counts

B15: IgE mAb 8_2 (antibody, V domains shown)
VH: QVLLKESGPGLVAPSQSLSITCTVSGFSLTSYGVSWVRQPPGKGLEWLGVIWGDGNTDYHSALISRLSIRKDNSKSQVFLKLNSLQTDDTATYYCAIGSPFAYWGQGTLVTVSA
VL: DVLMTQTPLSLPVSLGDQVSISCRSSQNIVHSTGNTYLEWYLQKPGQSPKLLIFKVSNRLSGVPDRFSGSGSGTDFTLNISRVEAADLGIYSCFQGSHVPFTFGSGTKLEIK
notes: IgE (IGHE, IGKC) from HDM-exposed mouse, BoneMarrow
Derp2_ab_clr (Der p 2 [1]): 0.655
Olee1_ab_clr (Ole e 1 [2]): -1.13
Derp2_ab_rank (Der p 2 [3]): 0.837
Derp2_ab_raw (Der p 2 [4]): 22 counts
Olee1_ab_raw (Ole e 1 [5]): 0 counts

The next lines start with the values.

Kd [7]: 54.8 nM
negLog10Kd [8]: 7.26
REGN560.L15_ab_raw [9]: 9190 counts
B5: Table 1 Line # 29 antibody (SP_B_cell) (antibody, V domains shown)
VH: EVQLLESGGGLVQPGGSLRLSCAASGFTFSSYAMSWVRQAPGKGLEWVSAISGSGGSTYYADSVKGRFTISRDNSKNTLYLQMNSLRAEDTAIYYCARYGNWNYIWGQGTLVTVSS
VL: B4 VL with F33L, L55Q, F96L, P100G, D105E, F106I

Kd [7]: 12.1 nM
negLog10Kd [8]: 7.92
REGN560.L15_ab_raw [9]: 2060 counts
B6: Table 1 Line # 19 antibody (BM_Plasma_cell) (antibody, human IgG4, V domains shown)
VH: EVQLVESGGGLVQPGRSLRLSCAASGFTFDDFAMHWVRQEPGKGLEWVSGISWNGGNIGYADSVKGRFTISRDNAKNSLYLQMNSLRAEDTAFYYCAKDVSSAWYGYFDYWGQGTLVTVSS
VL: B7 VL with I29V, R31S, F46L, S60L, Q90V
notes: as for B3

Kd [7]: 34.5 nM
negLog10Kd [8]: 7.46
REGN560.L15_ab_raw [9]: 3180 counts
B10: Table 1 Line # 12 antibody (BM_Plasma_cell) (antibody, human IgG4, V domains shown)
VH: QVQLVESGGGVVQPGRSLRLSCAASGFTFSSYGMHWVRQAPGKGLEWVSVISYDGSNKYYADSVKGRFTISRDNSKNTLFLQVNSLRAEDTAVYYCAKEGRTGFDYWGQGTLVTVSS
VL: B9 VL with S26R, I31N, Y36F, N90K, R96W
notes: as for B3

Kd [7]: 23.8 nM
negLog10Kd [8]: 7.62
REGN560.L15_ab_raw [9]: 4410 counts
B11: Table 1 Line # 5 antibody (BM_Plasma_cell) (antibody, V domains shown)
VH: QVQLVQSGAEVKKPGASVKVSCKASGYTFTGYYIYWVRQAPGQGLEWMGWINPNSGGTNYAQKFQGRVTMTRDTSISTVYMELSRLRSDDAAVYYCAKRKRGLDGWGQGTTVTVSS
VL: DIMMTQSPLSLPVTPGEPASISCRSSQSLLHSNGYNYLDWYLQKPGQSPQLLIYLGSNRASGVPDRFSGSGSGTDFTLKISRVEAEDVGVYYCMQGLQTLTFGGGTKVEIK
notes: as for B3

Kd [7]: 58.1 nM
negLog10Kd [8]: 7.24
REGN560.L15_ab_raw [9]: 7910 counts
B12: Table 1 Line # 32 antibody (SP_B_cell) (antibody, human IgG4, V domains shown)
VH: EVQLVESGGGLVQPGRSLRLSCAASGFTFDDYAMHWVRQAPGKGLEWVSGVNWNGVSLGYADSVKGRFTISRDNAKNSLYLQMNSLRAEDTAFYYCAKDSGSYHYYYGMDGWGQGTTVTVSS
VL: B13 VL with A43D, Y49F, S52T, S53N, P55H, S56G, S65G, G66V, L91H, T93S
notes: as for B3
